Assay results published in patent publication US20250066509A1 (SHANGHAI JMT BIO TECHNOLOGY, published 2025).
Read-outs that look alike come from different tables or passages of the source.

B1: CB-8 (antibody, V domains shown)
VH: EVQLVQSGAEVKKPGASVKVSCKASGYTFTSYGISWVRQAPGQGLEWMGWISAYNGNTNYAQKLQGRVTMTTDTSTSTAYMELRSLRSDDTAVYYCATLYGSGSLYYWGQGTLVTVSS
VL: DIVMTQSPSSLSAPVGDRVTITCQASQDIRNYINWFQQKPGKAPKLLIYAASSLQSGVPSRFSGSGSGTDFTLTISSLQPEDFATYYCQQSYSTPQWTFGQGTKVEIK
B2: CB-8-42 (antibody, human IgG1, kappa, V domains shown)
VH: EVQLVQSGAEVKKPGASVKVSCKASGYTFTSYGISWVRQAPGQGLEWMGWISAYSGNTNYAQKLQGRVTMTTDTSTSTAYMELRSLRSDDTAVYYCATLLPSGSLYYWGQGTLVTVSS
VL: DIVMTQSPSSLSAPVGDRVTITCQASQDIRNYINWFQQKPGKAPKLLIYAASYLQSGVPSRFSGSGSGTDFTLTISSLQPEDFATYYCQQSYSTPQWTFGQGTKVEIKR
B3: CB-8-13 (antibody, human IgG1, V domains shown)
VH: EVQLVQSGAEVKKPGASVKVSCKASGYRFTSYGISWVRQAPGQGLEWMGWISAYNGRTNYAQKLQGRVTMTTDTSTSTAYMELRSLRSDDTAVYYCATLYGSGSLYYWGQGTLVTVSS
VL: DIVMTQSPSSLSAPVGDRVTITCQASQDIRNYINWFQQKPGKAPKLLIYAASRLQSGVPSRFSGSGSGTDFTLTISSLQPEDFATYYCQQSYSTPQWTFGQGTKVEIK
B4: CB-8-37 (antibody, human IgG1, V domains shown)
VH: EVQLVQSGAEVKKPGASVKVSCKASGYAFTSYGISWVRQAPGQGLEWMGWISAYSGNTNYAQKLQGRVTMTTDTSTSTAYMELRSLRSDDTAVYYCATLYGSGSLYYWGQGTLVTVSS
VL: DIVMTQSPSSLSAPVGDRVTITCQASQDIRNYINWFQQKPGKAPKLLIYAASFLQSGVPSRFSGSGSGTDFTLTISSLQPEDFATYYCQQSYSTPQWTFGQGTKVEIK
B5: CB-8-14 (antibody, human IgG1, V domains shown)
VH: EVQLVQSGAEVKKPGASVKVSCKASGYTFRSYGISWVRQAPGQGLEWMGWISAYTGNTNYAQKLQGRVTMTTDTSTSTAYMELRSLRSDDTAVYYCATLYGSGSLYYWGQGTLVTVSS
VL: DIVMTQSPSSLSAPVGDRVTITCQASQDIRNYINWFQQKPGKAPKLLIYAASSRQSGVPSRFSGSGSGTDFTLTISSLQPEDFATYYCQQSYSTPQWTFGQGTKVEIK
B6: CB-8-40 (antibody, human IgG1, V domains shown)
VH: EVQLVQSGAEVKKPGASVKVSCKASGYTFTSYGISWVRQAPGQGLEWMGWISAYSGNTNYAQKLQGRVTMTTDTSTSTAYMELRSLRSDDTAVYYCATLYGSGSLYYWGQGTLVTVSS
VL: DIVMTQSPSSLSAPVGDRVTITCQASQDIRNYINWFQQKPGKAPKLLIYAASYLQSGVPSRFSGSGSGTDFTLTISSLQPEDFATYYCQQSYSTPQWTFGQGTKVEIK
B7: CB-8-24 (antibody, V domains shown)
VH: EVQLVQSGAEVKKPGASVKVSCKASGYTFTSYGISWVRQAPGQGLEWMGWISAYNGNTNYAQKLQGRVTMTTDTSTSTAYMELRSLRSDDTAVYYCATLLPSGSLYYWGQGTLVTVSS
VL: DIVMTQSPSSLSAPVGDRVTITCQASQDIRNYINWFQQKPGKAPKLLIYAASSLQSGVPSRFSGSGSGTDFTLTISSLQPEDFATYYCQQSYSTPQWTFGQGTKVEIK
B8: CB-8-23 (antibody, human IgG1, V domains shown)
VH: EVQLVQSGAEVKKPGASVKVSCKASGYTFTSGGISWVRQAPGQGLEWMGWISAYNGRTNYAQKLQGRVTMTTDTSTSTAYMELRSLRSDDTAVYYCATLYGSGSLYYWGQGTLVTVSS
VL: DIVMTQSPSSLSAPVGDRVTITCQASQDIRNYINWFQQKPGKAPKLLIYAASFLQSGVPSRFSGSGSGTDFTLTISSLQPEDFATYYCQQSYSTPQWTFGQGTKVEIK
B9: CB-8-26 (antibody, human IgG1, V domains shown)
VH: EVQLVQSGAEVKKPGASVKVSCKASGYTFKSYGISWVRQAPGQGLEWMGWISAYNGRTNYAQKLQGRVTMTTDTSTSTAYMELRSLRSDDTAVYYCATLYGSGSLYYWGQGTLVTVSS
VL: DIVMTQSPSSLSAPVGDRVTITCQASQDIRNYINWFQQKPGKAPKLLIYAASGLQSGVPSRFSGSGSGTDFTLTISSLQPEDFATYYCQQSYSTPQWTFGQGTKVEIK
B10: CB-8-41 (antibody, human IgG1, V domains shown)
VH: EVQLVQSGAEVKKPGASVKVSCKASGYLFTSYGISWVRQAPGQGLEWMGWISAYTGNTNYAQKLQGRVTMTTDTSTSTAYMELRSLRSDDTAVYYCATLYGSGSLYYWGQGTLVTVSS
VL: DIVMTQSPSSLSAPVGDRVTITCQASQDIRNYINWFQQKPGKAPKLLIYAASHLQSGVPSRFSGSGSGTDFTLTISSLQPEDFATYYCQQSYSTPQWTFGQGTKVEIK

Key:
[1] = target: T1, cynomolgus monkey FGFR1c/βKlotho receptor (cynomolgus monkey, UniProt A0A2K5WB58 1-1044); assay: cell-based or functional assay
T1 sequence (A0A2K5WB58 entry or part of it): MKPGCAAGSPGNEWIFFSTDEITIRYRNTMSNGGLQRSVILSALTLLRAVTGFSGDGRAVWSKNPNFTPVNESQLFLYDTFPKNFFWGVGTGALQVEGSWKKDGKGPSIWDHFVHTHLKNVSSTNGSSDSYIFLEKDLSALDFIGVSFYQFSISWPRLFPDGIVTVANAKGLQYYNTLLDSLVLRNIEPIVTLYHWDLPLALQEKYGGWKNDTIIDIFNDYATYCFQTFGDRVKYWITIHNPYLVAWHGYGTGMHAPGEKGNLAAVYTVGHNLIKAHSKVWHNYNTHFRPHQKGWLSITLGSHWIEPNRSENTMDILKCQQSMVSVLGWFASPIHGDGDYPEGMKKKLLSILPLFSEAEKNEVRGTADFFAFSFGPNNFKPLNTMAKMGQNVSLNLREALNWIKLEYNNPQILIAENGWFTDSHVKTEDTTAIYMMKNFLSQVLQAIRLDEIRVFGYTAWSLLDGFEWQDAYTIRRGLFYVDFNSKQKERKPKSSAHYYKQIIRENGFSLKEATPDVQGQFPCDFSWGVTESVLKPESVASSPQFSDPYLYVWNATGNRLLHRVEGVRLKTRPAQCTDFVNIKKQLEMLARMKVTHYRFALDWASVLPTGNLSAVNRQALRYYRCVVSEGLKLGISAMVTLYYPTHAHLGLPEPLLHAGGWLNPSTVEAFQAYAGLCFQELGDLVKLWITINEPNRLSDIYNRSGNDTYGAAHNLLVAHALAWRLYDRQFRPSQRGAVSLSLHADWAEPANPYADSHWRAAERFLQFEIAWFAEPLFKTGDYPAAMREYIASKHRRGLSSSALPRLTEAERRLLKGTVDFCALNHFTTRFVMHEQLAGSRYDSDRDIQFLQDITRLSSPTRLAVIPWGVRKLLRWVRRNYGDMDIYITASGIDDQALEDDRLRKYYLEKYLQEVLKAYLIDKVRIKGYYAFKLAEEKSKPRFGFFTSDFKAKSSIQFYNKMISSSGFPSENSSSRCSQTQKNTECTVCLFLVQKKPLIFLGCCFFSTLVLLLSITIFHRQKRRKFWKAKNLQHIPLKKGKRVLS

[2] = target: T1, cynomolgus monkey FGFR1c/βKlotho …; assay: cell-based or functional assay; remark: listed apart in the source
[3] = target: T2, human αKlotho extracellular segment protein (human, UniProt Q9UEF7 34-981); assay: ELISA; extracellular segment protein on nickel-coated plate, antibody titrated, anti-human IgG Fab-HRP
T2 construct: extracellular domain
T2 sequence (looked up): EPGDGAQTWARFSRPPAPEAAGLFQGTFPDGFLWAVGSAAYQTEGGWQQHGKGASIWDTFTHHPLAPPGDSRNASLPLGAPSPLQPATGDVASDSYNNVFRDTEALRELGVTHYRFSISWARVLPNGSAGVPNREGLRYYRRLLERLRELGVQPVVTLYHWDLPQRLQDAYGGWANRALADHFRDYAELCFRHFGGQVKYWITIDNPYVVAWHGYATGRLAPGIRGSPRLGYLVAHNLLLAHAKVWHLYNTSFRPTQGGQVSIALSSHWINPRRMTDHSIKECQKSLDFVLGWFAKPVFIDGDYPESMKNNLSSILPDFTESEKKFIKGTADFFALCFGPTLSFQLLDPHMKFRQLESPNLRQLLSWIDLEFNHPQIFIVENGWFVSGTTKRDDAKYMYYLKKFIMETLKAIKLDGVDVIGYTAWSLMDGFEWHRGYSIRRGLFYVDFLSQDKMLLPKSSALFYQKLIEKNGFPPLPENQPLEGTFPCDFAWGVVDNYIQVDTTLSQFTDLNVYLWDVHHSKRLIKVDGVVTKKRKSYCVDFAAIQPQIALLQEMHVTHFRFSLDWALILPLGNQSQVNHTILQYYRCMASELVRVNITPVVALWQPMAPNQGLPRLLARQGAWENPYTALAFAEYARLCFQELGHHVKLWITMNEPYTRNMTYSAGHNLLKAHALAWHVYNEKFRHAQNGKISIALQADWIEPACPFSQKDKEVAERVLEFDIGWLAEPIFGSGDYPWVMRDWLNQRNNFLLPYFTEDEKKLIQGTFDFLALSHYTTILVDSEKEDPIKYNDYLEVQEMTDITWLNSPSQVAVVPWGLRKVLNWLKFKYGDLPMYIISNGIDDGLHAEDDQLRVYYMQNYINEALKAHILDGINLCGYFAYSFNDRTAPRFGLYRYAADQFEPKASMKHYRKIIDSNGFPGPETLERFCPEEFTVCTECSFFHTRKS
Experimental: In this Example, the binding of some antibodies in Example 1 to human βKlotho, human αKlotho, and mouse βKlotho was detected using an ELISA assay as described below. A solution of human βKlotho (R&D systems), human αKlotho (R&D systems), or mouse βKlotho (R&D systems) extracellular segment protein at a specified concentration was added to a nickel-coated 96-well plate (Pierce) and the plate was incubated overnight at room temperature. The next day, the plate was blocked with PBS/1% BSA, and then antibodies at various concentrations were added to the wells. After incubating the plate for 1.5 hours at room temperature, a HRP-labeled anti-human IgG Fab secondary antibody was added to the wells and the plate was incubated for 30 minutes at room temperature. After the substrate was added and reacted at room temperature for 15 minutes, the reaction-stopping solution was added. OD₄₅₀ values were read. Exemplary data of antibodies' binding to human βKlotho, human αKlotho, and mouse βKlotho in the ELISA assay are as follows.

[4] = target: T1, cynomolgus monkey FGFR1c/βKlotho …; assay: cell-based or functional assay; remark: listed apart in the source
[5] = target: human FGFR4/βKlotho receptor (human, UniProt P22455 22-802); assay: cell-based or functional assay
Sequence of human FGFR4/βKlotho receptor (P22455 22-802, chain 1 of 2): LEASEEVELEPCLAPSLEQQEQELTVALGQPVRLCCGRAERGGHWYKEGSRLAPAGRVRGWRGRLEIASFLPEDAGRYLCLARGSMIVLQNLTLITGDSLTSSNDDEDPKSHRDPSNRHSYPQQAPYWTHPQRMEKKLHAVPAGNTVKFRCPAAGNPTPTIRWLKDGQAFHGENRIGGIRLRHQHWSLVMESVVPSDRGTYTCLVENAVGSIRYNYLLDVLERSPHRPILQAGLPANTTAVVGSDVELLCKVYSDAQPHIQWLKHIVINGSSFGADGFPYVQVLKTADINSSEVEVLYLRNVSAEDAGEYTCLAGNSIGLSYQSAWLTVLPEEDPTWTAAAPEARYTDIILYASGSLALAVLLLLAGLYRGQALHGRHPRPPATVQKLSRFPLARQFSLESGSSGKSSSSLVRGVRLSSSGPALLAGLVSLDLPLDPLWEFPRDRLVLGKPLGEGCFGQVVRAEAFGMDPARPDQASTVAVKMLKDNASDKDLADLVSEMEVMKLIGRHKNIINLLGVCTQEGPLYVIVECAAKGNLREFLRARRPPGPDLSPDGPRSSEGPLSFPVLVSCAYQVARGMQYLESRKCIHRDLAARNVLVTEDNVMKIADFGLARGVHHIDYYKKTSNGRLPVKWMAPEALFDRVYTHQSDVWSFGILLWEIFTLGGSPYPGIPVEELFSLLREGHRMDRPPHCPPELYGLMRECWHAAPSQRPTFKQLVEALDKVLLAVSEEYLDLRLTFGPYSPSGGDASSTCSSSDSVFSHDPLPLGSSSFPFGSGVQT
Sequence of human FGFR4/βKlotho receptor (chain, as listed by the source, chain 2 of 2): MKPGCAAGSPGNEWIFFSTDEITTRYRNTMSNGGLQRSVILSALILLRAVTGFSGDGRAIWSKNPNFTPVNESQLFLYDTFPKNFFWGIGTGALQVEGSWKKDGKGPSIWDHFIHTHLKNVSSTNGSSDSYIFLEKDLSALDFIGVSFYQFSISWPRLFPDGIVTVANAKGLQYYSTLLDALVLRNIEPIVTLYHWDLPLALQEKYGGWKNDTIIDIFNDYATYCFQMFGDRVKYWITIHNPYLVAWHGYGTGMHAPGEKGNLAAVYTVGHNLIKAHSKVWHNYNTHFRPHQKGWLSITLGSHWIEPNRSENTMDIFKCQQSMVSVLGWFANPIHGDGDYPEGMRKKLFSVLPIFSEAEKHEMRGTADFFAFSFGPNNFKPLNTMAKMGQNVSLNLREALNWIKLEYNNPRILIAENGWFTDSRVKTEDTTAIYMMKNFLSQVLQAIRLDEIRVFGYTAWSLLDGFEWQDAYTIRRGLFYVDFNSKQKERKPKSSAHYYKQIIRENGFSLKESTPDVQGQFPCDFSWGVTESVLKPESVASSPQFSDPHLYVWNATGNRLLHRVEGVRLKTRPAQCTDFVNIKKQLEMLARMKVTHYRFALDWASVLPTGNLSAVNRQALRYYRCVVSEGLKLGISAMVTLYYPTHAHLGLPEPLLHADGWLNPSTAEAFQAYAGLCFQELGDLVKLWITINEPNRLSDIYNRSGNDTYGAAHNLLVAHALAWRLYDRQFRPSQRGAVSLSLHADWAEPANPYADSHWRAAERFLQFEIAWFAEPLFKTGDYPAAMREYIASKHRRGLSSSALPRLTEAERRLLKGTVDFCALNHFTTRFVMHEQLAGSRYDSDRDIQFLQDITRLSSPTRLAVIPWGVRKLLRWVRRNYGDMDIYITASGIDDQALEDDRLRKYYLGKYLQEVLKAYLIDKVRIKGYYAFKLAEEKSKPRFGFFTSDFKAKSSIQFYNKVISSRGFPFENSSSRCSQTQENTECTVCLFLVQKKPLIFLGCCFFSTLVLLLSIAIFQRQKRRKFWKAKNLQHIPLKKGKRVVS

[6] = target: T3, human βKlotho extracellular segment protein (human, UniProt Q86Z14 53-996); assay: Gator BLI; antibody captured on Protein A probe, human βKlotho ECD 400 nM-50 nM in solution
T3 construct: Captured by nickel plate or anti-His antibody, so His-tagged; also called human βKlotho extracellular protein
T3 sequence: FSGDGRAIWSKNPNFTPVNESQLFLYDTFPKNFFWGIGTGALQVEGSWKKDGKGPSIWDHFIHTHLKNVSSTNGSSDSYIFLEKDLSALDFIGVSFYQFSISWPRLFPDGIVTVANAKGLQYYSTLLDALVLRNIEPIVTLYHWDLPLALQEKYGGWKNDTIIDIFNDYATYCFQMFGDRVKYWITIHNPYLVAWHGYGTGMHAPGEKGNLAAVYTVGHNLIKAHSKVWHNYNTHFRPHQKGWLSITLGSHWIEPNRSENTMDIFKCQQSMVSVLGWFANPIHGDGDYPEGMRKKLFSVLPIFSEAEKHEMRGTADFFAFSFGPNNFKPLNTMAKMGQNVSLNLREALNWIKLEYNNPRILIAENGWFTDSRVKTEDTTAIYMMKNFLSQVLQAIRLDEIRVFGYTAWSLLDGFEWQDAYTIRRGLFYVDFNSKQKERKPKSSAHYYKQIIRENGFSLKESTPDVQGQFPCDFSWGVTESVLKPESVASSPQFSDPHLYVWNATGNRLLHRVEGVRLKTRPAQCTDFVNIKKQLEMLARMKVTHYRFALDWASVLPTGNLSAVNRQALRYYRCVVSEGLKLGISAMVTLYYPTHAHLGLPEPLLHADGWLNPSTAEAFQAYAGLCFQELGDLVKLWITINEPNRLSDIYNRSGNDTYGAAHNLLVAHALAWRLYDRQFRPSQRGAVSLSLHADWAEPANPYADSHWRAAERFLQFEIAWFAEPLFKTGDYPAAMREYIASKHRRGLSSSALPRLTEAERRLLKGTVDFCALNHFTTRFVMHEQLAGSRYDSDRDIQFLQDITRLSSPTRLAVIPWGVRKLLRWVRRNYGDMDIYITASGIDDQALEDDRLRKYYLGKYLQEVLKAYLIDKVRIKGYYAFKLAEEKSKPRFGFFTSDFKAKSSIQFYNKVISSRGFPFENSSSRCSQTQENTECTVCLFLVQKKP
Experimental: The antibodies described above were tested for affinity using Gator (Gator bio). Briefly, an antibody was first captured using a probe coated with Protein A (Gator bio). After the baseline was monitored for 60 seconds, the antibody-to-the antigen binding was determined with the human βKlotho extracellular segment protein described above at varying concentrations (400 nM-50 nM). Then, the dissociation was detected in a K buffer (Gator bio). Meanwhile, the function of an antibody to activate the human or cynomolgus monkey FGFR1c/βKlotho receptor was detected using the reporter-based assay described in Example 2.

Binder | EC50 for antibody-induced cell activation, as determined by the reporter-based assay [2] [nM] | also measured
B1 | 2.86 | EC50, luciferase reporter-based assay (receptor activation) [1]: 4.89 nM; EC50 [3]: > 100 nM
B2 | – | EC50, luciferase reporter-based assay (receptor activation) [4]: 0.17 nM; EC50, luciferase reporter-based assay (receptor activation) [5]: > 100 nM
B3 | 0.88 | –
B4 | 0.54 | –
B5 | 1.08 | –
B6 | 0.49 | –
B7 | 0.15 | –
B8 | 0.55 | Kd [6]: 7.08 nM; koff [6]: 0.000173 s⁻¹; kon [6]: 24500 M⁻¹ s⁻¹
B9 | 0.71 | –
B10 | 1.57 | –
